Numbering of substitutions follows the chain as printed.
Assays:
Assay in all cases: cleavage_in_vitro
[1] = biological target: T1, SalI-HF R107A (Streptomyces albus G) (UniProt Q53608); conditions: NEB4, 37 C, Mg2+; FI NEB1-3: >=8000, >=64000, >=4000
T1 sequence: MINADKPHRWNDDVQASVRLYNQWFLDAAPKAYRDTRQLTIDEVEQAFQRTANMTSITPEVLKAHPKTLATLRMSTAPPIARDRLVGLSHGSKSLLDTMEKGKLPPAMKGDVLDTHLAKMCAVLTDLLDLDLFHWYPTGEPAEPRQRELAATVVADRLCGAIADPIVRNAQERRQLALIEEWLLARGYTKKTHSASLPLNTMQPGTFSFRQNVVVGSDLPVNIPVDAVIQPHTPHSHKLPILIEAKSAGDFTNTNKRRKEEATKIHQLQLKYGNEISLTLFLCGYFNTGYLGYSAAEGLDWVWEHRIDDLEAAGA

[2] = biological target: T2, SalI (Streptomyces albus G) (UniProt Q53608); conditions: NEB4, 37 C, Mg2+; FI NEB1-3: 8, 1, 32
T2 sequence: T1 sequence with A107R

[3] = test system: T3, AvrII-HF Y104F (Anabaena variabilis); conditions: NEB4, 37 C, Mg2+; FI NEB1-3: 500, >=500, >=16
T3 sequence: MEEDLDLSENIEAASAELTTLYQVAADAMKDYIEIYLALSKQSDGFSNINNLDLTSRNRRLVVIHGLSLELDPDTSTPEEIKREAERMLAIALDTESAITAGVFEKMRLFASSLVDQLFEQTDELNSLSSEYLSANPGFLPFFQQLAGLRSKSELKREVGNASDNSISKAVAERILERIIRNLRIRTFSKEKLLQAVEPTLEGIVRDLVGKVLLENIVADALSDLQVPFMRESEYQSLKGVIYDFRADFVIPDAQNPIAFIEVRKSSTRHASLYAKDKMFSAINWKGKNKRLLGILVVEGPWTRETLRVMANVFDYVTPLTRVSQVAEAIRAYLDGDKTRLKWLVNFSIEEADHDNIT

[4] = test system: T4, AvrII (Anabaena variabilis); conditions: NEB4, 37 C, Mg2+; FI NEB1-3: 64, 8, 32
T4 sequence: T3 sequence with F104Y

[5] = biological target: T5, PvuII-HF T46G (Proteus vulgaris) (UniProt P23657); conditions: NEB4, 37 C, Mg2+; FI NEB1-3: >=250, >=2000, >=250
T5 sequence: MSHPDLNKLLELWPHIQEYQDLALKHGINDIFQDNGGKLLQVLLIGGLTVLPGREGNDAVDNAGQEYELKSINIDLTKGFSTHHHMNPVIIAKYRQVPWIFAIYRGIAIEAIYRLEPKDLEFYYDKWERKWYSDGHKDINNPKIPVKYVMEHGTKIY

PvuII (Proteus vulgaris) = biological target: T6, PvuII (Proteus vulgaris) (UniProt P23657); conditions: NEB4, 37 C, Mg2+; FI NEB1-3: 250, 16, 8
T6 sequence: T5 sequence with G46T

[6] = test system: T7, BspQI-HF K279P/R388F (Bacillus sphaericus); conditions: NEB4, 50 C, Mg2+; FI NEB1-3: >=1000, >=1000, >=64
T7 sequence: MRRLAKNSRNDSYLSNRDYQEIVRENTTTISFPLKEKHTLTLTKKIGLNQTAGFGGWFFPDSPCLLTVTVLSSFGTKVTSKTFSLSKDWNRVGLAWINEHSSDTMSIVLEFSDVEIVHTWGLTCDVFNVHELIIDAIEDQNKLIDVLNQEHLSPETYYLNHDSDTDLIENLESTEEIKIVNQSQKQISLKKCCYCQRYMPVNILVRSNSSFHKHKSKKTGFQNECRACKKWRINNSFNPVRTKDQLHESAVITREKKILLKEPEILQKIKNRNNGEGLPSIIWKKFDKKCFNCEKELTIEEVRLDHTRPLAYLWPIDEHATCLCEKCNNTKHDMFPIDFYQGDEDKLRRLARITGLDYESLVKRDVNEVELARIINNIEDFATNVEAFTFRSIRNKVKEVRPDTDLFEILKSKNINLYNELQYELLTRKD

## HindIII-digested lambda DNA
[1]
  activity (fidelity index): > 32000
[2]
  activity (fidelity index): 1

## T7 DNA
[3]
  activity (fidelity index): > 1000
[4]
  activity (fidelity index): 32

## pBR322
[5]
  activity (fidelity index): 500
PvuII (Proteus vulgaris)
  activity (fidelity index): 0.25

## pUC19
[6]
  activity (fidelity index): > 4000

Source: patent US20130115678
